Data as given in article PMC8461249 (2021).
Blank lines part the entries; values can stand above or below the binder they belong to.

How the values were obtained:
Assay in all cases: SPR
[1] = molecular target: T1, TβRII-SE/Fc (TβRII-Soluble Endogenous fused to the human IgG1 Fc domain) (human)
T1 chain: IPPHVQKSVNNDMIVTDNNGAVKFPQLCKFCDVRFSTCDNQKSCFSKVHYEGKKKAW

[2] = molecular target: T2, TβRII-Fc (TβRII extracellular domain fused to human IgG1 Fc) (human, UniProt P37173-1 23-166)
[3] = molecular target: T1, TβRII-SE/Fc (TβRII-Soluble Endogenous …)
[4] = molecular target: T2, TβRII-Fc (TβRII extracellular domain …); remark: listed apart in the source
[5] = molecular target: 1D11

T2 sequence (P37173 23-166): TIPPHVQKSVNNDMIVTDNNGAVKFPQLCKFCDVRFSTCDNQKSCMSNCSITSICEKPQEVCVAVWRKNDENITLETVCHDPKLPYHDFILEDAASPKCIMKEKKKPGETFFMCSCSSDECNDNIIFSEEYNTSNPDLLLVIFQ

koff [1]: 0.00067 s⁻¹
koff [2]: 0.0197 s⁻¹
Kd [3]: 0.674 nM
Kd [4]: 9.5 nM
Kd [5]: 0.33 nM
koff [5]: 0.0015 s⁻¹
B1: TGF-β2 (ligand)
chain: ALDAAYCFRNVQDNCCLRPLYIDFKRDLGWKWIHEPKGYNANFCAGACPYLWSSDTQHSRVLSLYNTINPEASASPCCVSQDLEPLTILYYIGKTPKIEQLSNMIVKSCKCS

koff [1]: 0.00018 s⁻¹
koff [2]: 0.00116 s⁻¹
Kd [3]: 0.093 nM
Kd [4]: 0.137 nM
Kd [5]: 0.068 nM
koff [5]: 0.00012 s⁻¹
B2: TGF-β3 (ligand)
chain: ALDTNYCFRNLEENCCVRPLYIDFRQDLGWKWVHEPKGYYANFCSGPCPYLRSADTTHSTVLGLYNTLNPEASASPCCVPQDLEPLTILYYVGRTPKVEQLSNMVVKSCKCS
